Sequences and labels used below:
B1: αF1Ig 2 (parental anti-F1 immunoglobulin G type 1) (antibody, V domains shown)
VH: QVQLVESGGGLVKPGGSLRLSCAASGFTFSDYYMSWIRQAPGKGLEWVSYISSSGSIIYYADSVKGRFTISRDNAKNSLYLQMNSLRAEDTAVYYCAKEIRRHDAFDIWGQGTMVTVSS
VL: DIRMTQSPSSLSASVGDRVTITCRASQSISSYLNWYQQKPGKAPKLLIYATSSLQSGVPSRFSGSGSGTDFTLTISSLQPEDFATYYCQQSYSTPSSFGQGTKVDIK
notes: IgG1; also called parental IgG 2; original anti-F1 IgG 2; source: HEK293 cells, produced by ATUM, purified IgG
B2: αF1Ig AM2 (affinity matured anti-F1 immunoglobulin G type 1) (antibody, V domains shown)
VH: QVQLVESGGGLVKPGGSLRLSCAASGFTFSDYYMSWIRQAPGKGLEWVSYISGSGSIIYYADSVKGRFTISRDNAKNSLYLQMNSLRAEDTAVYYCAKEIRKHDAFDIWGQGTMVTVSS
VL: DIRMTQSPSSLSASVGDRVTITCRASRSISGYLNWYQQKPGKAPKLLIYATSSLQSGVPSRFSGSGSGTDFTLTISSLQPEDFATYYCQQSYSTPSSFGQGTKVDIK
notes: IgG1; also called αF1 AM2; source: HEK293 cells, produced by ATUM, purified IgG
B3: αF1Ig AM8 (affinity matured anti-F1 immunoglobulin G type 1) (antibody, V domains shown)
VH: QVQLQQWGAGLLKPSETLSLTCAVYGGSFSGYYWSWIRQPPGKGLEWIGEINRSGNTNYNPSLKSRVTISVDTSKNQFSLQLNSVTPEDTAVYYCARTRGYFDLWGRGTLVTVSS
VL: QPVLTQSPSVSVSPGQTASITCSGDKLGGRYASWYQQKPGQSPVLVIYQDTKRPSGIPERFSGSNSGNTATLTISGTQAMDEADYYCQSWDSSAAVFGTGTKLTVL
notes: IgG1; also called aF1Ig AM8; αF1 AM8; source: HEK293 cells, produced by ATUM, purified IgG
B4: αF1Ig 8 (parental anti-F1 immunoglobulin G type 1) (antibody, V domains shown)
VH: QVQLQQWGAGLLKPSETLSLTCAVYGGSFSGYYWSWIRQPPGKGLEWIGEINHSGNTNYNPSLKSRVTISVDTSKNQFSLQLNSVTPEDTAVYYCARTRGYFDLWGRGTLVTVSS
VL: QPVLTQSPSVSVSPGQTASITCSGDKLGDRYASWYQQKPGQSPVLVIYQDTKRPSGIPERFSGSNSGNTATLTISGTQAMDEADYYCQSWDSSAAVFGTGTKLTVL
notes: IgG1; also called parental IgG 8; original anti-F1 IgG 8; source: HEK293 cells, produced by ATUM, purified IgG
B5: αF1Ig AM2 (antibody, V domains shown)
VH: QVQLVESGGGLVKPGGSLRLSCAASGFTFSDYYMSWIRQAPGKGLEWVSYISGSGSIIYYADSVKGRFTISRDNAKNSLYLQMNSLRAEDTAVYYCAKEIRKHDAFDIWGQGTMVTVSS
VL: DIRMTQSPSSLSASVGDRVTITCRASRSISGYLNWYQQKPGKAPKLLIYATSSLQSGVPSRFSGSGSGTDFTLTISSLQPEDFATYYCQQSYSTPSSFGQGTKVDIK
notes: also called aF1Ig AM2; source: HEK293 cells, produced by ATUM; purified IgG
B6: αF1Ig 2 (antibody, V domains shown)
VH: QVQLVESGGGLVKPGGSLRLSCAASGFTFSDYYMSWIRQAPGKGLEWVSYISSSGSIIYYADSVKGRFTISRDNAKNSLYLQMNSLRAEDTAVYYCAKEIRRHDAFDIWGQGTMVTVSS
VL: not shown
notes: also called aF1Ig 2; aF1_2; source: HEK293 cells, produced by ATUM; purified IgG
B7: αF1Ig 8 (antibody, V domains shown)
VH: QVQLQQWGAGLLKPSETLSLTCAVYGGSFSGYYWSWIRQPPGKGLEWIGEINHSGNTNYNPSLKSRVTISVDTSKNQFSLQLNSVTPEDTAVYYCARTRGYFDLWGRGTLVTVSS
VL: QPVLTQSPSVSVSPGQTASITCSGDKLGDRYASWYQQKPGQSPVLVIYQDTKRPSGIPERFSGSNSGNTATLTISGTQAMDEADYYCQSWDSSAAVFGTGTKLTVL
notes: also called aF1Ig 8; aF1_8; source: HEK293 cells, produced by ATUM; purified IgG
B8: αF1Ig AM8 (antibody, V domains shown)
VH: QVQLQQWGAGLLKPSETLSLTCAVYGGSFSGYYWSWIRQPPGKGLEWIGEINRSGNTNYNPSLKSRVTISVDTSKNQFSLQLNSVTPEDTAVYYCARTRGYFDLWGRGTLVTVSS
VL: QPVLTQSPSVSVSPGQTASITCSGDKLGGRYASWYQQKPGQSPVLVIYQDTKRPSGIPERFSGSNSGNTATLTISGTQAMDEADYYCQSWDSSAAVFGTGTKLTVL
notes: also called aF1Ig AM8; source: HEK293 cells, produced by ATUM; purified IgG

Our source for the Kd values is PMC11218954 (PLOS ONE, 2024).

Values joined by “and” are separate entries in the source; they are usually repeats but may differ in a detail not shown here. Identical values can stand only once.

One test deals with T1, soluble recombinant F1 antigen, monomer-enriched (Yersinia pestis, strain , UniProt P26948).
T1 construct: source: bought: BEI Resources NR-44223, expressed in E. coli, monomer enriched
Briefly: SPR. The conditions noted are these: both partners purified.
As for B1, the Kd – broadly, the free concentration of one partner at which half of the binding sites on the other are occupied at equilibrium, for simple one-to-one binding – stood at 1.9 nM. As to B2, the Kd was 2.7 nM.

With B3, the Kd was determined as 1.9 nM. Regarding B4, the Kd worked out at 7.4 nM.

The next test has as its target T2, recombinant F1 antigen of Y. pestis, monomer enriched (Yersinia pestis, strain , UniProt P26948).
T2 construct: source: expressed in E. coli; BEI NR-44223, monomer enriched
Briefly: SPR. The conditions noted are these: both partners purified.
For B5, the Kd was 2.4 nM and 2.3 nM and 1.2 nM. On to B6, for which the Kd was 2.2 nM and 1.3 nM and 2.8 nM and 1.2 nM. Still for that read-out and setting: with B7 the figure was 5.6 nM and 9.7 nM and 7.4 nM and 6 nM; with B8, 1.5 nM and 2.4 nM and 1.3 nM and 1.6 nM.
